{
  "source": "paper PMC6138665",
  "about": "(2018)",
  "key": {"[1]": {"target": "T1, LC3B protein (recombinant) (UniProt Q9GZQ8 1-120)", "assay": "NMR"}, "[2]": {"target": "LC3A protein (recombinant) (UniProt Q9H492 1-121)", "assay": "ITC"}, "[3]": {"target": "-L1 protein (recombinant) (UniProt Q9H0R8 1-117)", "sequence (Q9H0R8 whole entry)": "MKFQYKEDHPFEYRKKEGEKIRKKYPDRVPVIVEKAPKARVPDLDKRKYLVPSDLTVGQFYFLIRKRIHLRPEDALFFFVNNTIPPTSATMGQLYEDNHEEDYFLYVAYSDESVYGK", "assay": "ITC"}, "[4]": {"target": "T2, GABARAP protein (recombinant) (UniProt O95166 1-117)", "T2 sequence (O95166 whole entry)": "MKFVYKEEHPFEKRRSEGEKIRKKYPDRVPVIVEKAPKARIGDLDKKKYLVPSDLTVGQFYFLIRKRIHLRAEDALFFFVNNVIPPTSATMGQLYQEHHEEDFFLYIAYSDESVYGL", "assay": "NMR; GABARAP residue I32"}, "[5]": {"target": "T1, LC3B protein (recombinant)", "assay": "ITC"}, "[6]": {"target": "T2, GABARAP protein (recombinant)", "assay": "ITC"}},
  "note": "Non-standard residues stand in square brackets, D forms with d. No end group written: not given here. pS = N[C@@H](COP(=O)(O)O)C(=O)O",
  "data": [
    {"binder": "EALN[pS]GVEYYWDQLNET", "note": "[AMBRA1-LIR peptide, S1014 phosphorylated (P1)]", "values": [
      {"measurement": "Kd", "setting": "[1]", "value": 46, "unit": "µM"},
      {"measurement": "Kd", "setting": "[2]", "value": "~50", "unit": "µM"},
      {"measurement": "Kd", "setting": "[3]", "value": 25, "unit": "µM"},
      {"measurement": "Kd", "setting": "[4]", "value": 7, "unit": "µM"}
    ]},
    {"binder": "EALNDGVEYYWDQLNET", "note": "[AMBRA1-LIR peptide, D-phosphomimicked (PM)]", "values": [
      {"measurement": "Kd", "setting": "[5]", "value": "~50", "unit": "µM"},
      {"measurement": "Kd", "setting": "[6]", "value": 31, "unit": "µM"}
    ]},
    {"binder": "EALNSGVEYYWDQLNET", "note": "[AMBRA1-LIR peptide, unphosphorylated (P0)]", "values": [
      {"measurement": "Kd", "setting": "[1]", "value": 193, "unit": "µM"},
      {"measurement": "Kd", "setting": "[3]", "value": "> 50", "unit": "µM"},
      {"measurement": "Kd", "setting": "[4]", "value": 61, "unit": "µM"}
    ]}
  ]
}
